This is an account of results in PMC4125234.

This test deals with CMG2-Fc fusion protein (capillary morphogenesis protein 2 amino acids 1-225 fused to the Fc fragment of human IgG1) (human) (UniProt P58335). Description: BLI.
Chain of UniProt P58335 (P58335 34-225): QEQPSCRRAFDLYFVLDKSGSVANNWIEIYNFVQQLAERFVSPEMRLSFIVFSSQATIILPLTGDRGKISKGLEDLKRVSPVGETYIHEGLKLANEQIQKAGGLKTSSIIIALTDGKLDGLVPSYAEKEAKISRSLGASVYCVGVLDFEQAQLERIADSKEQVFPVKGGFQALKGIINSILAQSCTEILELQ

Take “protective antigen (PA) of anthrax toxin (natural protein)”: the Kd was determined as 0.84 nM, the koff stood at 9.7e-06 s⁻¹ and the on-rate constant (kon) was found to be 11500 M⁻¹ s⁻¹.
